In patent US8524444:

B1: Proteinase K (protein)
chain: AAQTNAPWGLARISSTSPGTSTYYYDESAGQGSCVYVIDTGIEASHPEFEGRAQMVKTYYYSSRDGNGHGTHCAGTVGSRTYGVAKKTQLFGVKVLDDNGSGQYSTIIAGMDFVASDKNNRNCPKGVVASLSLGGGYSSSVNSAAARLQSSGVMVAVAAGNNNADARNYSPASEPSVCTVGASDRYDRRSSFSNYGSVLDIFGPGTSILSTWIGGSTRSISGTSMATPHVAGLAAYLMTLGKTTAASACRYIADTANKGDLSNIPFGTVNLLAYNNYQA
B2: O-Linked N-acetylglucosaminyltransferase (OGT) (protein)
chain: MHYKEAIRISPTFADAYSNMGNTLKEMQDVQGALQCYTRAIQINPAFADAHSNLASIHKDSGNIPEAIASYRTALKLKPDFPDAYCNLAHCLQIVCDWTDYDERMKKLVSIVADQLEKNRLPSVHPHHSMLYPLSHGFRKAIAERHGNLCLDKINVLHKPPYEHPKDLKLSDGRLRVGYVSSDFGNHPTSHLMQSIPGMHNPDKFEVFCYALSPDDGTNFRVKVMAEANHFIDLSQIPCNGKAADRIHQDGIHILVNMNGYTKGARNELFALRPAPIQAMWLGYPGTSGALFMDYIITDQETSPAEVAEQYSEKLAYMPHTFFIGDHANMFPHLKKKAVIDFKSNGHIYDNRIVLNGIDLKAFLDSLPDVKIVKMKCPDGGDNADSSNTALNMPVIPMNTIAEAVIEMINRGQIQITINGFSISNGLATTQINNKAATGEEVPRTIIVTTRSQYGLPEDAIVYCNFNQLYKIDPSTLQMWANILKRVPNSVLWLLRFPAVGEPNIQQYAQNMGLPQNRIIFSPVAPKEEHVRRGQLADVCLDTPLCNGHTTGMDVLWAGTPMVTMPGETLASRVAASQLTCLGCLELIAKNRQEYEDIAVKLGTDLEYLKKVRGKVWKQRISSPLFNTKQYTMELERLYLQMWEHYAAGNKPDHMIKPVEVTESA

Tests used:
[1] = target: T1, polypeptide 4.8, FITC(Aha)STPVSRANMK(DEAC), unglycosylated
T1 chain: STPVSRANMK

[2] = target: T2, polypeptide 4.6, FITC(Aha)STPVSSANMK(DEAC), unglycosylated
T2 chain: STPVSSANMK

[3] = target: T3, polypeptide 4.3, FITC(Aha)STPRSSANMK (V→R)
T3 chain: STPRSSANMK

[4] = target: T4, polypeptide 4.5, FITC(Aha)STPVSRANMK (S→R)
T4 chain: STPVSRANMK

[5] = target: T5, polypeptide 4.1, FITC(Aha)STPVSSANMK (wt CK2-derived peptide)
T5 chain: STPVSSANMK

[6] = target: T6, polypeptide 4.2, FITC(Aha)STPFSSANMK (V→F)
T6 chain: STPFSSANMK

[7] = target: T7, polypeptide 4.4, FITC(Aha)STPVSFANMK (S→F)
T7 chain: STPVSFANMK

Protein	rate of proteolysis, unglycosylated against glycosylated polypeptide [1]	rate of proteolysis, unglycosylated against glycosylated polypeptide [2]	Relative rate of glycosylation [3]	Relative rate of glycosylation [4]	Relative rate of glycosylation [5]	Relative rate of glycosylation [6]	Relative rate of glycosylation [7]
B1	˜100-500 times faster	˜100-500 times faster	–	–	–	–	–
B2	–	–	0	0.7	1	0.15	0.4
